Reference: patent US20250333496A1 (Novo Nordisk, published 2025)
Like-named read-outs stand apart in the source and are kept apart here.

T1: IL-6R on HEK293-STAT3-Luc reporter cells (UniProt P08887 20-468, limits assumed)
T1 sequence (looked up): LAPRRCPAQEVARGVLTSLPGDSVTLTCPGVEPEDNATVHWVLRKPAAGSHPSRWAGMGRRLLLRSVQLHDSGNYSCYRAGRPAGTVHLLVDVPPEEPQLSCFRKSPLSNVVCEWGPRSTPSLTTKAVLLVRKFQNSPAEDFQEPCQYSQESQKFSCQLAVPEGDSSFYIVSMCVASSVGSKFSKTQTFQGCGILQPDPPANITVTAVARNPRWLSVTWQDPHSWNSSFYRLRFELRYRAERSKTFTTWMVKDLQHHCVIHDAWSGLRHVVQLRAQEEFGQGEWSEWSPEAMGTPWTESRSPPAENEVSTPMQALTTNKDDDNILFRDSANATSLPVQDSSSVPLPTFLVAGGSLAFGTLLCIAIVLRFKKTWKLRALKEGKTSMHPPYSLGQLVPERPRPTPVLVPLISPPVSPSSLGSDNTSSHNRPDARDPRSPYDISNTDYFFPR

B1: Polypeptide_29 (VHH)
VHH: EVQLVESGGGLVQPGGSLKLSCTTSGRRFSEYAVGWFRQAPGKEREFVADIGEQAENTWYAESVLGRFTISRDDAKNTVYLEMDGLKPEDTAVYYCAADKYGVGGNAQGYYDSWGQGTQVTVSS
notes: VHH_1.6 with C-terminal His tag extension E1; also called [VHH_1.6]-E1
B2: Reference Anti-IL6 Fab (Fab, V domains shown)
VH: EVQLVESGGGLVQPGGSLRLSCAASGFTISSNYMIWVRQAPGKGLEWVSDLYYYAGDTYYADSVKGRFTMSRDISKNTVYLQMNSLRAEDTAVYYCARWADDHPPWIDLWGRGTLVTVSS
VL: DIQMTQSPSTLSASVGDRVTITCRASQGISSWLAWYQQKPGKAPKVLIYKASTLESGVPSRFSGSGSGTEFTLTISSLQPDDFATYYCQQSWLGGSFGQGTKLEIKR
B3: Vobarilizumab anti-IL-6R domain SIA comparator (VHH)
VHH: EVQLVESGGGLVQPGGSLRLSCAASGSVFKINVMAWYRQAPGKGRELVAGIISGGSTSYADSVKGRFTISRDNAKNTLYLQMNSLRPEDTAVYYCAFITTESDYDLGRRYWGQGTLVTVSS
B4: anti-IL-6 VHH building block 7G05 SIA comparator (VHH)
VHH: QVKLEESGGGLVQPGGSLRLSCAASGSISRFNIMGWYRQAPGKQRELVADITNGGTTMYADSVKGRFTISRDNTKNTVYLQMNSLKPEDTAVYYCHTYYPTTGFDDWGQGAQVTVSS
B5: Compound 18 (VHH)
VHH: B1 VHH
modifications: Chem. 26 (C18 fatty acid substituent) on Cys in position 4 and on Cys in position 6 of the extension (SEQ ID NO: 162)
B6: Compound 19 (VHH)
VHH: B1 VHH
modifications: Chem. 27 (C20 fatty acid substituent) on Cys in position 4 and on Cys in position 6 of the extension (SEQ ID NO: 162)

Columns and labels:
[1] = target: T2, human IL-6 (mature hIL-6) (human, UniProt P05231 30-212); assay: cell-based or functional assay
T2 sequence (P05231 30-212): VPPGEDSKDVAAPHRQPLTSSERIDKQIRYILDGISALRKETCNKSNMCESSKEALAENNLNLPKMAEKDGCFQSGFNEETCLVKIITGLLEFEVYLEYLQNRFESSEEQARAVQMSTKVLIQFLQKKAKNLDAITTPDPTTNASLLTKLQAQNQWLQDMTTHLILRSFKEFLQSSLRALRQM

[2] = target: T2, human IL-6 (mature hIL-6); assay: cell-based or functional assay; remark: listed apart in the source
[3] = target: T3, recombinant human HPC4-tagged IL-6 (human, UniProt P05231 30-212); assay: SPR, HPC4-IL-6 captured on anti-HPC4 antibody, VHH injected, 25 C, 1:1 model
T3 construct: captured on an anti-HPC4 antibody in SPR; also called HPC4-human IL6
T3 sequence (P05231 other isoform, or with tags, fused parts or gaps limits assumed): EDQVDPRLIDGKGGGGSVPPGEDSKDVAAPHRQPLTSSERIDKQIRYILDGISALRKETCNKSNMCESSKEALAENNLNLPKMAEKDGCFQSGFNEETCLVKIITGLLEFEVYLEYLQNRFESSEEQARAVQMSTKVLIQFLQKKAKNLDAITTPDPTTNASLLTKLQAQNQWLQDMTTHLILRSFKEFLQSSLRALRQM
Description: Binding of purified anti-IL-6 VHHs to recombinant human HPC4-tagged IL-6 (SEQ ID NO: 98) was probed by Surface Plasmon Resonance (SPR).
IL-6 was captured at a flow rate of 10 μL/min for 30 seconds.
Subsequently, concentration series of VHH polypeptides according to Table 33 were injected at a flow rate of 50 μL/min for 200 seconds to allow for binding to […] followed by 600 seconds running buffer (10 mM HEPES, 150 mM NaCl, 5 mM CaCl₂, 0.05% (v/v) Surfactant P20, 1 mg/mL bovine serum albumin, pH 7.4) injection allowing dissociation from IL-6. The running buffer was also used for dilution of anti-IL-6 VHHs and IL-6. Regeneration of the chip was achieved using a regeneration buffer consisting of 50 mM EDTA in running buffer without CaCl₂, 30 seconds contact time, and a 30 μL/min flow rate applied twice to the surface. The binding data were collected at 25° C. at either a Biacore instrument (Cytiva AB, Uppsala) or a Bruker SPR32 (Bruker Daltonics). Data were analysed according to a 1:1 model using either BiaEvaluation or Biacore Insight Evaluation (Cytiva AB, Uppsala) or Bruker Analyser (Bruker Daltonics).

[4] = target: T2, human IL-6 (mature hIL-6); assay: cell-based or functional assay; remark: listed apart in the source
[5] = target: T2, human IL-6 (mature hIL-6); assay: cell-based or functional assay; remark: listed apart in the source
[6] = target: T1, IL-6R on HEK293-STAT3-Luc reporter cells; assay: cell-based or functional assay
[7] = target: T1, IL-6R on HEK293-STAT3-Luc reporter cells; assay: cell-based or functional assay; remark: listed apart in the source

IC50 (nM) mean, STAT3-luc reporter gene assay [1] [nM]	Relative IC50 to Polypeptide_29 [1] [fold]	IC 50 (nM), reporter gene assay, 0% HSA [4] [nM]	IC50 (nM), STAT3-luc reporter gene assay [5] [nM]	Relative IC50 to Polypeptide_29 [5] [fold]	Relative IC50 to Reference Anti-IL6 Fab [5] [fold]	further results	Binder
0.039	1	0.035	0.044	1	1.1	IC50 (nM), STAT3-luc reporter gene assay [2]: 0.034 nM; Relative IC50 to Reference Polypeptide_29 [2]: 1 fold; Kd [3]: 0.0039 nM; koff [3]: 8.69e-05 s⁻¹; kon [3]: 2.23e+07 M⁻¹ s⁻¹	B1
–	–	0.026	0.039	0.9	1	IC 50 (nM), reporter gene assay, 1% HSA [4]: 0.017 nM	B2
–	–	–	–	–	–	IC 50 (nM), reporter gene assay, 0% HSA [6]: 0.114 nM; IC50 (nM), STAT3-luc reporter gene assay [7]: 0.114 nM; Relative IC50 to Polypeptide_29 [7]: 2.6 fold; Relative IC50 to Reference Anti-IL6 Fab [7]: 2.9 fold	B3
–	–	–	0.115	2.6	2.9	–	B4
0.043	1.2	–	–	–	–	–	B5
0.042	1.1	–	–	–	–	–	B6
